{"source": "patent CN117192118A", "about": "(DRAGONBOAT BIOPHARMACEUTICAL SHANGHAI CO LTD, dated 2023)", "binders": {"B1": {"name": "抗CD47-CLDN18.2双特异性抗体双抗A (bispecific antibody, human IgG1, kappa)", "heavy": "not shown", "light": "DIQMTQSPSSLSASVGDRVTITCRASQDISNHLNWYQQKPGKAPKLLIYYTSRIHSGVPSSFRGSGSGTDYTLTISSLQPEDIATYFCQQGYTLPFTFGSGTKLEIKRTVAAPSVFIFPPSDEQLKSGTASVVCLLNNFYPREAKVQWKVDNALQSGNSQESVTEQDSKDSTYSLSSTLTLSKADYEKHKVYACEVTHQGLSSPVTKSFNRGEC", "notes": "The short chain is the A7H3L3 kappa light chain; Expressed in CHO-K1; also called 本发明抗体"}}, "key": {"[1]": {"target": "T1, 人CD47 (human, UniProt Q08722 19-139, limits assumed)", "T1 construct": "The construct is not described", "T1 sequence (Q08722 19-139 limits assumed)": "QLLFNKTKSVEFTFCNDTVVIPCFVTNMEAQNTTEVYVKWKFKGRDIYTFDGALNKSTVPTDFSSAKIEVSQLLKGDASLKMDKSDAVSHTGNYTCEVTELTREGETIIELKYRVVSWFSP", "experiment": "ELISA"}, "[2]": {"target": "T2, 人CLDN18.2 (human, UniProt P56856-2 1-261, limits assumed)", "T2 construct": "The construct and its source are not described; P56856 is the CLDN18 entry; CLDN18.2 is its isoform 2 (A2)", "T2 sequence (looked up)": "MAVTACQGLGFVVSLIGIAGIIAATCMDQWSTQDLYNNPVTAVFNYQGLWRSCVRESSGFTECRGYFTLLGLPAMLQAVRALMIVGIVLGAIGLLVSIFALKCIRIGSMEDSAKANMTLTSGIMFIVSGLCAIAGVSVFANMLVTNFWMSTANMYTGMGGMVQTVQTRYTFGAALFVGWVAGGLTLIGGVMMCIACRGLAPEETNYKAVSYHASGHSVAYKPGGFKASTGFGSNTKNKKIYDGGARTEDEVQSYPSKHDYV", "experiment": "ELISA"}, "[3]": {"target": "T1, 人CD47", "experiment": "BLI"}, "[4]": {"target": "T2, 人CLDN18.2", "experiment": "BLI"}, "[5]": {"target": "T1, 人CD47", "experiment": "ELISA competition, blocking of CD47 binding to SIRPα"}}, "data": [{"binder": "B1", "values": [{"measurement": "EC50", "setting": "[1]", "value": 0.0462, "unit": "µg/mL"}, {"measurement": "EC50", "setting": "[2]", "value": 0.121, "unit": "µg/mL"}, {"measurement": "Kd", "setting": "[3]", "value": 21.8, "unit": "nM"}, {"measurement": "Kd", "setting": "[4]", "value": 1.87, "unit": "nM"}, {"measurement": "IC50", "setting": "[5]", "value": 2.2, "unit": "µg/mL"}]}]}
